In series [1] the target is C-terminal ~65 kDa domain of Vip3Ab1, expressed from Leu222 (Bacillus thuringiensis). The series can be described thus: SEC; analytical SEC, TSKgel SuperSW3000, 50 mM sodium phosphate pH 7.0 with 250 mM NaCl, 75 µl/min, 3 µl at 150 µg/ml, fluorescence detection; size from retention time against molecular weight standards; proteins not digested.
The target in series [2] is Vip3Ab1 (Bacillus thuringiensis). The description is as above.
The target of series [3] is Vip3Ab1 after overnight processing with H. zea midgut enzymes (~20 kDa and ~65 kDa products together) (Bacillus thuringiensis). The series is described as follows: SEC; purified Vip3 protein digested overnight with H. zea gut fluid (50 mM MOPS pH 10, 30 °C), stopped with protease inhibitors, then analytical SEC on TSKgel SuperSW3000 in 50 mM sodium phosphate pH 7.0 with 250 mM NaCl; size from retention time.

Series [4] has as its target Vip3_AB chimera (N-terminal domain of Vip3Ab1 and C-terminal domain of Vip3Bc1) (Bacillus thuringiensis). The series can be described thus: SEC; analytical SEC, TSKgel SuperSW3000, 50 mM sodium phosphate pH 7.0 with 250 mM NaCl, 75 µl/min, 3 µl at 150 µg/ml, fluorescence detection; size from retention time against molecular weight standards; proteins not digested. A general note: SEC sorts molecules by how far they enter the pores of the column.

In series [5] the target is Vip3_BA chimera (N-terminal domain of Vip3Bc1 and C-terminal domain of Vip3Ab1) (Bacillus thuringiensis). The description is as above.
Series [6] deals with the molecule itself. The description is as above.
The target in series [7] is T1, ~65 kDa C-terminal product of Vip3Bc1 after gut enzyme processing (Bacillus thuringiensis, UniProt A0A290WPI2 214-803).
T1 construct: Vip3Bc1, GenBank MF543028, product from the cleavage 210NVTK/EVIE (processed at 214Glu); source: Vip3Bc1 from Pseudomonas fluorescens, purified, then digested overnight with H. zea gut enzymes
T1 sequence: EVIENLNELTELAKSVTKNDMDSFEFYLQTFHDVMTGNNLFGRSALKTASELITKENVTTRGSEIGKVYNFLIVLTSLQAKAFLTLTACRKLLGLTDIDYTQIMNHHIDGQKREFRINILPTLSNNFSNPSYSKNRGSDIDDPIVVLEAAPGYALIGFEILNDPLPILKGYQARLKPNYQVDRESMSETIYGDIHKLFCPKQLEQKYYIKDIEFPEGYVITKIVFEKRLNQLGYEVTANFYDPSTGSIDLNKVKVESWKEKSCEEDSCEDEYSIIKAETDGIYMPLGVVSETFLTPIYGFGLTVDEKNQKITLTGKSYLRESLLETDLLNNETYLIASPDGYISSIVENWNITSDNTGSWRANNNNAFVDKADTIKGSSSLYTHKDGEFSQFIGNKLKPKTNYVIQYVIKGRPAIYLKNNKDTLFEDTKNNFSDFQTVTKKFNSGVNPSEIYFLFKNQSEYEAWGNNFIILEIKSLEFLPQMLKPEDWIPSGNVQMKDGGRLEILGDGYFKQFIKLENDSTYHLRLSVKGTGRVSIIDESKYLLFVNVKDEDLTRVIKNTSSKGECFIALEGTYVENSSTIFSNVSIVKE
The series is described as follows: SEC; purified Vip3 protein digested overnight with H. zea gut fluid (50 mM MOPS pH 10, 30 °C), stopped with protease inhibitors, then analytical SEC on TSKgel SuperSW3000 in 50 mM sodium phosphate pH 7.0 with 250 mM NaCl; size from retention time. Conditions: both partners purified.

Series [8] deals with the molecule itself. Described as above.

The values that follow come from publication PMC5593919, “Functional characterization of Vip3Ab1 and Vip3Bc1: Two novel insecticidal proteins with differential activity against lepidopteran pests” (Scientific Reports, 2017).

By stoichiometry N is commonly meant a count of units in the complex or per binding partner.

With “C-terminal ~65 kDa domain of Vip3Ab1, expressed from Leu222 (domain or fragment)”, the stoichiometry N in series [1] came to 2.

For the molecule Vip3Ab1 (natural protein), the stoichiometry N in series [2] was found to be 4.

In series [3], “Vip3Ab1 after overnight processing with H. zea midgut enzymes (~20 kDa and ~65 kDa products together) (complex)” gave a stoichiometry N of 4.

For “Vip3_AB chimera (N-terminal domain of Vip3Ab1 and C-terminal domain of Vip3Bc1) (from UniProt A0A290WPI2 224-803)”, the stoichiometry N in series [4] stood at 4.

“Vip3_BA chimera (N-terminal domain of Vip3Bc1 and C-terminal domain of Vip3Ab1) (from UniProt A0A290WPI2 2-223)”: in series [5], the percent tetrameric was 50% and the stoichiometry N amounted to 4.

B1: Vip3Bc1 (natural protein)
chain: VQKWMQRMIIVDNNKLNVRALPSFIDYFNGIYGFATGIKDIMGMIFKTDTGGSNLTLDEILKNQNLLNDISGKLDGINGDLGDLIAQGNLNSELAKELLKISNEQNQMLNHVNAQLNAINSTLNIYLPKITSMLNEVMKQNHVLSLQIEFLSKQLQEISDKLDIINLNVLINSTLTEITPAYQRIKYVNEKFDELTSTVEKNPKSYQDNVTKEVIENLNELTELAKSVTKNDMDSFEFYLQTFHDVMTGNNLFGRSALKTASELITKENVTTRGSEIGKVYNFLIVLTSLQAKAFLTLTACRKLLGLTDIDYTQIMNHHIDGQKREFRINILPTLSNNFSNPSYSKNRGSDIDDPIVVLEAAPGYALIGFEILNDPLPILKGYQARLKPNYQVDRESMSETIYGDIHKLFCPKQLEQKYYIKDIEFPEGYVITKIVFEKRLNQLGYEVTANFYDPSTGSIDLNKVKVESWKEKSCEEDSCEDEYSIIKAETDGIYMPLGVVSETFLTPIYGFGLTVDEKNQKITLTGKSYLRESLLETDLLNNETYLIASPDGYISSIVENWNITSDNTGSWRANNNNAFVDKADTIKGSSSLYTHKDGEFSQFIGNKLKPKTNYVIQYVIKGRPAIYLKNNKDTLFEDTKNNFSDFQTVTKKFNSGVNPSEIYFLFKNQSEYEAWGNNFIILEIKSLEFLPQMLKPEDWIPSGNVQMKDGGRLEILGDGYFKQFIKLENDSTYHLRLSVKGTGRVSIIDESKYLLFVNVKDEDLTRVIKNTSSKGECFIALEGTYVENSSTIFSNVSIVKE
notes: Vip3Bc1, vegetative insecticidal protein of Bacillus thuringiensis, GenBank MF543028; expressed with only the first methionine removed (N-terminus VQKWM at 2); Gene was synthesized, codon biased for maize; source: Pseudomonas fluorescens, purified (ammonium sulfate precipitation, anion exchange)
In the case of B1, in series [6], the “stoichiometry N” value turned out to be 4.

B2: C-terminal ~65 kDa domain of Vip3Bc1, expressed from Leu222 (domain or fragment)
chain: LTELAKSVTKNDMDSFEFYLQTFHDVMTGNNLFGRSALKTASELITKENVTTRGSEIGKVYNFLIVLTSLQAKAFLTLTACRKLLGLTDIDYTQIMNHHIDGQKREFRINILPTLSNNFSNPSYSKNRGSDIDDPIVVLEAAPGYALIGFEILNDPLPILKGYQARLKPNYQVDRESMSETIYGDIHKLFCPKQLEQKYYIKDIEFPEGYVITKIVFEKRLNQLGYEVTANFYDPSTGSIDLNKVKVESWKEKSCEEDSCEDEYSIIKAETDGIYMPLGVVSETFLTPIYGFGLTVDEKNQKITLTGKSYLRESLLETDLLNNETYLIASPDGYISSIVENWNITSDNTGSWRANNNNAFVDKADTIKGSSSLYTHKDGEFSQFIGNKLKPKTNYVIQYVIKGRPAIYLKNNKDTLFEDTKNNFSDFQTVTKKFNSGVNPSEIYFLFKNQSEYEAWGNNFIILEIKSLEFLPQMLKPEDWIPSGNVQMKDGGRLEILGDGYFKQFIKLENDSTYHLRLSVKGTGRVSIIDESKYLLFVNVKDEDLTRVIKNTSSKGECFIALEGTYVENSSTIFSNVSIVKE
notes: Vip3Bc1, GenBank MF543028, beginning at Leu222; also called C-terminus of Vip3Bc1; C-terminal region of Vip3Bc1; source: Pseudomonas fluorescens, purified
Take B2: the “stoichiometry N” value in series [6] came out at 2.

B3: ~20 kDa N-terminal product of Vip3Bc1 after gut enzyme processing (domain or fragment)
chain: ALPSFIDYFNGIYGFATGIKDIMGMIFKTDTGGSNLTLDEILKNQNLLNDISGKLDGINGDLGDLIAQGNLNSELAKELLKISNEQNQMLNHVNAQLNAINSTLNIYLPKITSMLNEVMKQNHVLSLQIEFLSKQLQEISDKLDIINLNVLINSTLTEITPAYQRIKYVNEKFDELTSTVEKNPKSYQDNVTK
notes: Vip3Bc1, GenBank MF543028, product between the cleavage at 21Ala and the cleavage 210NVTK/EVIE (processed at 214Glu); source: Vip3Bc1 from Pseudomonas fluorescens, purified, then digested overnight with H. zea gut enzymes
In the case of B3, the binding result in series [7] was “binds”.

B4: Vip3Bc1 after overnight processing with H. zea midgut enzymes (~20 kDa and ~65 kDa products together) (complex)
chain 1: ALPSFIDYFNGIYGFATGIKDIMGMIFKTDTGGSNLTLDEILKNQNLLNDISGKLDGINGDLGDLIAQGNLNSELAKELLKISNEQNQMLNHVNAQLNAINSTLNIYLPKITSMLNEVMKQNHVLSLQIEFLSKQLQEISDKLDIINLNVLINSTLTEITPAYQRIKYVNEKFDELTSTVEKNPKSYQDNVTK
chain 2: EVIENLNELTELAKSVTKNDMDSFEFYLQTFHDVMTGNNLFGRSALKTASELITKENVTTRGSEIGKVYNFLIVLTSLQAKAFLTLTACRKLLGLTDIDYTQIMNHHIDGQKREFRINILPTLSNNFSNPSYSKNRGSDIDDPIVVLEAAPGYALIGFEILNDPLPILKGYQARLKPNYQVDRESMSETIYGDIHKLFCPKQLEQKYYIKDIEFPEGYVITKIVFEKRLNQLGYEVTANFYDPSTGSIDLNKVKVESWKEKSCEEDSCEDEYSIIKAETDGIYMPLGVVSETFLTPIYGFGLTVDEKNQKITLTGKSYLRESLLETDLLNNETYLIASPDGYISSIVENWNITSDNTGSWRANNNNAFVDKADTIKGSSSLYTHKDGEFSQFIGNKLKPKTNYVIQYVIKGRPAIYLKNNKDTLFEDTKNNFSDFQTVTKKFNSGVNPSEIYFLFKNQSEYEAWGNNFIILEIKSLEFLPQMLKPEDWIPSGNVQMKDGGRLEILGDGYFKQFIKLENDSTYHLRLSVKGTGRVSIIDESKYLLFVNVKDEDLTRVIKNTSSKGECFIALEGTYVENSSTIFSNVSIVKE
notes: Vip3Bc1 ~20 kDa product, as m9; Vip3Bc1 ~65 kDa product, as m10; Vip3Bc1 was processed much more slowly than Vip3Ab1; also called processed Vip3Bc1; source: Vip3Bc1 from Pseudomonas fluorescens, purified, then digested overnight with H. zea gut enzymes; copies: 4 + 4
Consider B4, for which the “stoichiometry N” value in series [8] turned out to be 4.
